These results are taken from patent US20150044231A1 (Novo Nordisk, published 2015).

In one experiment the target is His-FcγRIII (158V) (UniProt P08637). Nature of the experiment: SPR (BIAcore T100), Fc variant immobilised, His-FcγR as analyte. For orientation: Surface plasmon resonance follows binding to a sensor surface in real time, without labels.
The next experiment addresses His-FcγRIIB (UniProt P31994). Described as above.
The target of another experiment is His-FcγRIIA (131R) (UniProt P12318). The description is as above.
A further experiment concerns the target His-FcγRI (UniProt P12314). Described as above.
For another experiment, the target named is His-FcγRIII (158F) (UniProt P08637). Described as above.
The target of the next experiment is His-FcγRIIA (131H) (UniProt P12318). The experiment is described as above.
Experiment [1] has as its target T1, human C5a receptor (human, UniProt P21730 1-350).
T1 construct: In the SPA: receptor-carrying membrane fragments of RBL-hC5aR cells; also called hC5aR; C5aRI
T1 sequence: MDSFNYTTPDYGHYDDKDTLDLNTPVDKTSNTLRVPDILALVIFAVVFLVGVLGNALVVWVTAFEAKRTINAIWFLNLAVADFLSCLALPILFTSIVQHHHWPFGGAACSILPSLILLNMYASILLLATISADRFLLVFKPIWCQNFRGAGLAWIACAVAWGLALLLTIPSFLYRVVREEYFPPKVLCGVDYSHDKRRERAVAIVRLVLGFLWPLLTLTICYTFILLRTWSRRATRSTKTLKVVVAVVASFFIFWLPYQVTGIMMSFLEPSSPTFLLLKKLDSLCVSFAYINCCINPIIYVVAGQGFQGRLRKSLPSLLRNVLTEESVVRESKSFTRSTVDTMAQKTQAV
Nature of the experiment: SPA, unlabelled hC5a displacing 125I-hC5a from RBL-hC5aR membranes. As for the experimental part:
(§1) A detailed description of the SPA is provided in U.S. Pat. No. 4,568,649 and protocols provided by the manufacturer (Amersham Biosciences). Briefly, receptor-carrying membrane fragments purified from RBL-hC5aR cells bind to scintillating micro particles coated with wheat germ agglutinin (WGA). […] Specific for the SPA-principle, only radio isotope and particles in immediate proximity of each other will emit light. […] The % displacement was calculated as follows: […]

Experiment [2] addresses T1, human C5a receptor. Description: SPA, displacement of 125I-hC5a from RBL-hC5aR membranes. As for the experimental part:
as §1
A general note: Displacement assays read how much labelled ligand stays bound in the presence of the test substance.

Experiment [3] addresses T1, human C5a receptor. Nature of the experiment: cell-based or functional assay.
The target of experiment [4] is T1, human C5a receptor. Nature of the experiment: cell-based or functional assay. The source holds these as a separate data set.
Experiment [5] addresses T1, human C5a receptor. Nature of the experiment: cell-based or functional assay. The source holds these as a separate data set.

Sequence of His-FcγRI (P12314 16-288 limits assumed): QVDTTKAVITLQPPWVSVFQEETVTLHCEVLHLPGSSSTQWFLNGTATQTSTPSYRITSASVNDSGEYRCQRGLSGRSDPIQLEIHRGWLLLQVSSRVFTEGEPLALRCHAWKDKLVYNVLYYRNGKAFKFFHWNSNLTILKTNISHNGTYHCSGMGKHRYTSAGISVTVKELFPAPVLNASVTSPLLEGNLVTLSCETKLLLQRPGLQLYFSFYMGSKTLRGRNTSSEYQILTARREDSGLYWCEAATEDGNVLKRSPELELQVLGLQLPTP
Sequence of His-FcγRIIA (131H) (P12318 36-218 limits assumed): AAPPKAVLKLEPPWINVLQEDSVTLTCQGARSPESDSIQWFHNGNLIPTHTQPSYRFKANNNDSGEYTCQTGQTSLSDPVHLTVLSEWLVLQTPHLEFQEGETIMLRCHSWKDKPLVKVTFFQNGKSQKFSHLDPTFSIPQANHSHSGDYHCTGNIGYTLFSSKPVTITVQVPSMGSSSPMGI
Sequence of His-FcγRIIB (P31994 46-217 limits assumed): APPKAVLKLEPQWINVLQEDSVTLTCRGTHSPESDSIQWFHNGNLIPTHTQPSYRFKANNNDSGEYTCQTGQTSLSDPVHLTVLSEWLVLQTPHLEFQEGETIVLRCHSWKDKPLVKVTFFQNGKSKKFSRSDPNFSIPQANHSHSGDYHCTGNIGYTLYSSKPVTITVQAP
Sequence of His-FcγRIIA (131R) (P12318 36-218 H167R limits assumed): as the sequence (P12318 36-218 limits assumed) above, with H132R counted along it
Sequence of His-FcγRIII (158V) (P08637 17-208 F176V limits assumed): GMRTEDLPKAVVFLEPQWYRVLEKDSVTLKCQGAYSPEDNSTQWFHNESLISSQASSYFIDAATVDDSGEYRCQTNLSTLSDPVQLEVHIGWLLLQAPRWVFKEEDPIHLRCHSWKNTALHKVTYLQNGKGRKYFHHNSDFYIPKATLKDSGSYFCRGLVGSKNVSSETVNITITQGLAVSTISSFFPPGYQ
Sequence of His-FcγRIII (158F) (P08637 17-208 limits assumed): as the sequence (P08637 17-208 F176V limits assumed) above, with V160F counted along it

In the experiment with His-FcγRIII (158V), “Ref Ab Q variable region on IgG1 L234A, L235E (antibody)” returned a Kd of 960 nM.

In the case of “Ref Ab Q variable region on IgG2/4 V234A, G236A (antibody)”, the equilibrium dissociation constant (Kd) with His-FcγRIIB was found to be 5340 nM.

With “Ref Ab Q variable region on IgG1 reference (antibody)”, the Kd with His-FcγRIIA (131R) was 950 nM; with His-FcγRI, 0.664 nM; in the experiment with His-FcγRIIB it was 420 nM; with His-FcγRIII (158F) it was 330 nM; with His-FcγRIIA (131H), 640 nM.

Turning to “Ref Ab Q variable region on IgG4 (S228P) reference (antibody)”, the dissociation constant Kd stood at 800 nM with His-FcγRIIA (131R), 2.71 nM in the experiment with His-FcγRI, 1080 nM in the experiment with His-FcγRIIB and 3520 nM with His-FcγRIIA (131H).

Take “Ref Ab Q variable region on IgG4 (S228P) N297Q (antibody)”: the Kd in the experiment with His-FcγRI amounted to 130 nM.

In the experiment with His-FcγRI, “Ref Ab Q variable region on IgG1 N297Q (antibody)” displayed a Kd of 360 nM.

With “Ref Ab Q variable region on IgG1 L234A, L235E, G237A, A330S and P331S (antibody)”, the equilibrium dissociation constant (Kd) with His-FcγRIIB is 2100 nM.

B1: human C5a (ligand, UniProt P01031 678-751, looked up)
chain: TLQKKIEEIAAKYKHSVVKKCCYDGACVNNDETCEQRAARISLGPRCIKAFTECCVVASQLRANISHKDMQLGR
notes: C5a is only a fragment of it; also called hC5a
B1: the IC50 in the experiment with human C5a receptor [1] amounted to 4.1 nM.

B2: 35F24A3 (antibody, V domains shown)
VH: EVKLVESGGGLVKPGGSLKLSCSASGFAFSNYDMSWVRQTPEKRLEWVAAFSSDGYTFYPDSLKGRFTISRDNARNTLYLQMSSLGSEDTALYCCARHADYANYPVMDYWGQGTSVTVSS
VL: DIQMTQSPSSLSASVGDRVTITCRASQGISSWLAWYQQKPEKAPKSLIYAASSLQSGVPSRFSGSGSGTDFTLTISSLQPEDFATYYCQQYNSYPRTFGQGTKVEIKR
notes: Human monoclonal antibody from HumAb mice, purified from hybridoma supernatant
Take B2: the concentration for half-maximal inhibition (IC50) with human C5a receptor [2] was determined as 2.97 nM. Also, the “Migration of human neutrophils (in % compared to migration in the absence of antibody)” value with human C5a receptor [3] was found to be 30%.

B3: Ref Ab Q variable region on IgG2 reference (antibody, part only; not given: Variable regions of Ref Ab Q, not shown: another chain or arm of the molecule)
constant: ASTKGPSVFPLAPCSRSTSESTAALGCLVKDYFPEPVTVSWNSGALTSGVHTFPAVLQSSGLYSLSSVVTVPSSNFGTQTYTCNVDHKPSNTKVDKTVERKCCVECPPCPAPPVAGPSVFLFPPKPKDTLMISRTPEVTCVVVDVSHEDPEVQFNWYVDGVEVHNAKTKPREEQFNSTFRVVSVLTVVHQDWLNGKEYKCKVSNKGLPAPIEKTISKTKGQPREPQVYTLPPSREEMTKNQVSLTCLVKGFYPSDIAVEWESNGQPENNYKTTPPMLDSDGSFFLYSKLTVDKSRWQQGNVFSCSVMHEALHNHYTQKSLSLSPGK
With B3, the dissociation constant Kd with His-FcγRIIA (131R) came out at 2790 nM; with His-FcγRIIB, 1540 nM; in the experiment with His-FcγRIIA (131H), 220 nM; with His-FcγRIII (158V), 1500 nM.

B4: 35F32A3 (antibody, V domains shown)
VH: QVQLVESGGGLVRPGRSLRLSCAASGFTFRDYGMHWVRQAPGKSLEWVAVIWFDGINKYYGDSVKGRFTISRDNSKNTLYLQMNSLRAEDTAMYYCVGTYFGPGTTEFFQHWGQGTLVTVSS
VL: EIVLTQSPATLSLSPGERATLSCRASQSVSSYLAWYQQKPGQAPRLLIYDASNRATGIPARFSGSGSGTDFTLTISSLEPEDFAVYYCQQRSNWPTFGPGTKVDIKR
notes: as for B2
The molecule B4 gave an IC50 with human C5a receptor [2] of 0.95 nM. Also, in the experiment with human C5a receptor [3], the “Migration of human neutrophils (in % compared to migration in the absence of antibody)” value came to 11%.

B5: 35F12A2 (antibody, V domains shown)
VH: QVQLVESGGGVVQPGRSLRLSCVASGFTFSNYGMHWVRQAPGKGLEWVAVIWYDGINKYYADSVKGRFTISRDNSKSTLYLQMNSLRAEDTAVYYCAGTYYTSGSSKHFQPWGQGTLVTVSS
VL: EIVLTQSPATLSLSPGERATLSCRASQSVSSYLSWYQQKPGQAPRLLIYDASNRATGIPARFSGSGSGTDFTLTISSLEPEDFAVYYCQQRSNWPTFGPGTKVDIKR
notes: as for B2
B5: the IC50 in the experiment with human C5a receptor [2] was 2.04 nM. In addition, in the experiment with human C5a receptor [3], the “Migration of human neutrophils (in % compared to migration in the absence of antibody)” value was found to be 19%.

B6: Ref Ab Q variable region on IgG4 (S228P) E233P, F234V, L235A (antibody, part only; not given: Variable regions of Ref Ab Q, not shown: another chain or arm of the molecule)
constant: ASTKGPSVFPLAPCSRSTSESTAALGCLVKDYFPEPVTVSWNSGALTSGVHTFPAVLQSSGLYSLSSVVTVPSSSLGTKTYTCNVDHKPSNTKVDKRVESKYGPPCPPCPAPPVAGGPSVFLFPPKPKDTLMISRTPEVTCVVVDVSQEDPEVQFNWYVDGVEVHNAKTKPREEQFNSTYRVVSVLTVLHQDWLNGKEYKCKVSNKGLPSSIEKTISKAKGQPREPQVYTLPPSQEEMTKNQVSLTCLVKGFYPSDIAVEWESNGQPENNYKTTPPVLDSDGSFFLYSRLTVDKSRWQEGNVFSCSVMHEALHNHYTQKSLSLSLGK
Turning to B6, the Kd with His-FcγRI is 380 nM.

B7: 32F3A6 GL (antibody, human IgG1, V domains shown)
VH: EVQLVESGGGLVQPGGSLRLSCAASGFTFSSYVMHWVRQATGKGLEWVSAIDTGGGTYYADSVKGRFTISRENAKNSLYLQMNSLRAGDTAVYYCARDYYYYASGSYYKAFDIWGQGTMVTVSS
VL: EIVLTQSPGTLSLSPGERATLSCRASQSVSSRYLAWYQQKPGQAPRLLIYGASSRATGIPDRFSGSGSGTDFTLTISRLEPEDFAVYYCQQYGSPLTFGQGTKLEIKR
Consider B7, for which, in the experiment with human C5a receptor [4], the “IC50 CD11b up-regulation” value came to 0.7 µg/mL, the “IC50 CD62L down-regulation” value turned out to be 0.5 µg/mL and the “IC50 Calcium-flux assay” value was 1.8 µg/mL. Moreover, in the experiment with human C5a receptor [5], the “IC50, Neutrophil migration (Chemotaxis) Assay” value was 1 µg/mL.

B8: 32F3A6 (antibody, V domains shown)
VH: EVQLVQSGGGLVHPGGSLRLSCAGSGFTFSSYVMHWVRQAPGKGLEWVSAIDTGGGTYYADSVKGRFTISRDNAKNSLYLQMNSLRAEDMAVYYCARDYYYYASGSYYKAFDIWGQGTMVTVSS
VL: EIVLTQSPGTLSLSPGERATLSCRASQSVSSRYLAWYQQKPGQAPRLLIYGASSRATGIPDRFSGSGSGTDFTLTISRLEPEDFAVYYCQQYGSPLTFGQGTKLEIKR
notes: as for B2
For the molecule B8, in the experiment with human C5a receptor [2], the IC50 stood at 1.9 nM. The “Migration of human neutrophils (in % compared to migration in the absence of antibody)” value with human C5a receptor [3] came to 2%.

B9: Ref Ab Q variable region on IgG2/IgG4 reference (antibody, part only; not given: Ref Ab Q variable regions, part only)
heavy, part: ASTKGPSVFPLAPCSRSTSESTAALGCLVKDYFPEPVTVSWNSGALTSGVHTFPAVLQSSGLYSLSSVVTVPSSNFGTQTYTCNVDHKPSNTKVDKTVERKCCVECPPCPAPPVAGPSVFLFPPKPKDTLMISRTPEVTCVVVDVSQEDPEVQFNWYVDGVEVHNAKTKPREEQFNSTYRVVSVLTVLHQDWLNGKEYKCKVSNKGLPSSIEKTISKAKGQPREPQVYTLPPSQEEMTKNQVSLTCLVKGFYPSDIAVEWESNGQPENNYKTTPPVLDSDGSFFLYSRLTVDKSRWQEGNVFSCSVMHEALHNHYTQKSLSLSLGK
As for B9, the figures for the Kd with His-FcγRIIB and with His-FcγRIIA (131H) were 1830 nM and 1030 nM, respectively.

As a reminder, the Kd is the free concentration of one partner at which half of the binding sites on the other are occupied at equilibrium, for simple one-to-one binding. Higher therefore signals lower affinity. By IC50 is commonly meant the concentration that inhibits the measured activity by half. Low values mean greater potency, high ones weaker potency.
